In this assay the target is T1, human c-Met/Fc fusion protein (R&D Systems) (human, UniProt P08581 25-932).
T1 construct: Bought from R&D Systems; Coated on microtiter plates at 2 ug/mL; also called human c-Met/Fc protein; not shown: Fc part of the bought fusion protein; not described
The assay is described as follows: ELISA, human c-Met/Fc coated at 2 ug/mL, hybridoma culture, anti-mouse IgG-HRP. The procedure: Human c-Met/Fc fusion protein was seeded in an amount of 50 μL (2 μg/mL)/well to microtiter plates and allowed to adhere to the surface of each well. The antibody that remained unbound was removed by washing.
The hybridoma cell culture obtained in Reference Example 1.1.2 was added in an amount of 50 μL to each well of the plates and incubated for 1 hour. The cells remaining unreacted were washed out with a sufficient amount of Tris-buffered saline and Tween 20 (TBST). Goat anti-mouse IgG-horseradish peroxidase (HRP) was added to the plates and incubated for 1 hour at room temperature. The plates were washed with a sufficient amount of TBST, followed by reacting the peroxidase with a substrate (OPD). Absorbance at 450 nm was measured on an ELISA reader.

T1 sequence (P08581 25-932 limits assumed): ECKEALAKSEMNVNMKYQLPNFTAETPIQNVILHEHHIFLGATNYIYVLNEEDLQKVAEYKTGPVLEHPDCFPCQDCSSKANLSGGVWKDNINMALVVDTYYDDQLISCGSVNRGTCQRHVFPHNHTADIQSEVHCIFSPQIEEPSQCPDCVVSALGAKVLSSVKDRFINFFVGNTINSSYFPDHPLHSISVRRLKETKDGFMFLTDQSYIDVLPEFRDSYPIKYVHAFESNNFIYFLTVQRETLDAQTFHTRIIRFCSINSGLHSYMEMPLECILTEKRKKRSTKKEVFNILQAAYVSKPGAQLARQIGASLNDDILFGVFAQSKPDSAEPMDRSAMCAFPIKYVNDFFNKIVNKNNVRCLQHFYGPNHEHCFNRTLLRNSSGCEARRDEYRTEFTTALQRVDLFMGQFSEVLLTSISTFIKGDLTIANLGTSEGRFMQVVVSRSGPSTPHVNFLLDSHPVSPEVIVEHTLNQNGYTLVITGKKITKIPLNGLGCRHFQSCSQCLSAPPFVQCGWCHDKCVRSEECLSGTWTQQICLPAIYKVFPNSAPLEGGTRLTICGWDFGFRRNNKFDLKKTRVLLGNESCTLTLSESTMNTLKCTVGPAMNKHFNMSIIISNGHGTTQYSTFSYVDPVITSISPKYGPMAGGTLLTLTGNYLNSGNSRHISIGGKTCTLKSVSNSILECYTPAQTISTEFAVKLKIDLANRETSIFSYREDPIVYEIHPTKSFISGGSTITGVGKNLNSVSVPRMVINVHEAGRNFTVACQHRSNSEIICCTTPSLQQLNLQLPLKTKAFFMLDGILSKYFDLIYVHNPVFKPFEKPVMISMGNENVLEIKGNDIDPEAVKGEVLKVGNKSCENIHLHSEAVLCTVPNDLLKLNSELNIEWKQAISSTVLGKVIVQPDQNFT

B1: AbF46, a mouse antibody to c-Met (antibody, V domains shown)
VH: EVKLVESGGGLVQPGGSLRLSCATSGFTFTDYYMSWVRQPPGKALEWLGFIRNKANGYTTEYSASVKGRFTISRDNSQSILYLQMDTLRAEDSATYYCARDNWFAYWGQGTLVTVSA
VL: DILMTQSPSSLTVSAGEKVTMSCKSSQSLLASGNQNNYLAWHQQKPGRSPKMLIIWASTRVSGVPDRFIGSGSGTDFTLTINSVQAEDLAVYYCQQSYSAPLTFGAGTKLELK
notes: Mouse monoclonal antibody, tested as hybridoma culture supernatant in the selection ELISA; also called monoclonal antibody of hybridoma KCLRF-BP-00220
For B1, the binding result is reported as “binds”.

For the origin of these results see patent US20150010575A1 (SAMSUNG ELECTRONICS, published 2015).
